The source of these data is US20070015194A1 (RAMOT AT TEL AVIV UNIVERSITY, published 2007).

In the test the target is T1, CC2D1A protein (coiled-coil and C2 domain containing 1A), wild type, human, GenBank Accession No. NP-060191 (human, UniProt Q6P1N0 1-951).
T1 construct: Endogenous protein in lysates of lymphoblast or lymphoblastoid cells from unaffected individuals; It is the long isoform of 951 amino acids, seen as a band of about 104 kDa; also called FLJ20241; wild type protein
T1 sequence: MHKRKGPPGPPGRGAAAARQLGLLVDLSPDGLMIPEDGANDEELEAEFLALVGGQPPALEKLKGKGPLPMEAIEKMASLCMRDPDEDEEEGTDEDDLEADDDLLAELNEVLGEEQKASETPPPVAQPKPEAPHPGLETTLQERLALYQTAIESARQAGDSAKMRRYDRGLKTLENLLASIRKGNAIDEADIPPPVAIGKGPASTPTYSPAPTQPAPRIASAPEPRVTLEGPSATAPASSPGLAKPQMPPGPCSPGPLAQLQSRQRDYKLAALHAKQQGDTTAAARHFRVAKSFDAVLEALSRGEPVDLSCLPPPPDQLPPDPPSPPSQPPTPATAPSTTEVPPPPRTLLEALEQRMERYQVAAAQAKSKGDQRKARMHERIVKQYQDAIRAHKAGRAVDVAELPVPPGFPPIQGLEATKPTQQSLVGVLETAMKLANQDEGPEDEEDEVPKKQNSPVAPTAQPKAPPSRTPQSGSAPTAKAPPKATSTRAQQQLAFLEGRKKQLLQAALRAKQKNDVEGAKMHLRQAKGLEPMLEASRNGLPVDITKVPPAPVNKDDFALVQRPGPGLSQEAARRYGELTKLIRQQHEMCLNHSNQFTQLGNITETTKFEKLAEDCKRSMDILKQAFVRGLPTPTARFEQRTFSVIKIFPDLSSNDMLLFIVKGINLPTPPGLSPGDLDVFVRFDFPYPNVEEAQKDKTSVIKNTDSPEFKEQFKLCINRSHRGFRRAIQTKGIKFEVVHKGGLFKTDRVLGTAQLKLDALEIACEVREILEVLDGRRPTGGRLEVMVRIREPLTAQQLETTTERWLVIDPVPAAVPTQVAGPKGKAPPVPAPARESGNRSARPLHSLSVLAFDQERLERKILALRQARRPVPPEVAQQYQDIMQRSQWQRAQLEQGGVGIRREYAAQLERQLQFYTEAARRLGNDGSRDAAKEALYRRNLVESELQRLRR
Briefly: co-immunoprecipitation of endogenous proteins from control lymphoblastoid cell extracts with anti-CC2D1A antibody, Western blot with anti-p50 (data not shown). How it is done: Western blot—Lymphoblast cell proteins were subjected to Western blot analysis using the CC2D1A antibody. Briefly, cells were washed twice with PBS and lysed at 4° C. with lysis buffer (0.6% NP40 and protease inhibitors). After 15 minutes of incubation, cell lysates were centrifuged for 5 minutes at 14,000 rpm and supernatants were collected. Protein concentrations were determined using the BCA Protein Assay Reagent Kit (PIERCE). Whole-cell proteins (approximately 20 μg) were subjected to 7.5% SDS-PAGE and transferred to nitrocellulose membranes. The membranes were blocked for 30 minutes at room temperature with 5% skim milk in Tris-buffer (10 mM Tris, 150 mM NaCl, and 0.1% Tween-20) and subsequently incubated with anti-CC2D1A rabbit polyclonal antibody (BL695, Bethyl laboratories) diluted 1:20000, rabbit polyclonal anti-emerin (sc-15378, Santa Cruz Biotechnology) diluted 1:5000, mouse monoclonal antibody anti-NF-κB p50 (sc-8414, Santa Cruz Biotechnology) diluted 1:1000 or mouse monoclonal antibody p65 (sc-8008, Santa Cruz Biotechnology) diluted 1:5000. After washing and subsequent incubation for 1 hour with horseradish peroxidase coupled to anti-rabbit IgG or mouse IgG respectively (Jackson ImmunoResearch Laboratories, West Grove, Pa.), immunoreactive proteins were visualized by an ECL (enhanced chemiluminescence super signal) Detection Kit (PIERCE). […]
(In western blotting, separated proteins are transferred to a membrane and probed.)

B1: p50 subunit of NF-κB (other, human, UniProt P19838 1-433, looked up)
chain: MAEDDPYLGRPEQMFHLDPSLTHTIFNPEVFQPQMALPTDGPYLQILEQPKQRGFRFRYVCEGPSHGGLPGASSEKNKKSYPQVKICNYVGPAKVIVQLVTNGKNIHLHAHSLVGKHCEDGICTVTAGPKDMVVGFANLGILHVTKKKVFETLEARMTEACIRGYNPGLLVHPDLAYLQAEGGGDRQLGDREKELIRQAALQQTKEMDLSVVRLMFTAFLPDSTGSFTRRLEPVVSDAIYDSKAPNASNLKIVRMDRTAGCVTGGEEIYLLCDKVQKDDIQIRFYEEEENGGVWEGFGDFSPTDVHRQFAIVFKTPKYKDINITKPASVFVQLRRKSDLETSEPKPFLYYPEIKDKEEVQRKRQKLMPNFSDSFGGGSGAGAGGGGMFGSGGGGGGTGSTGPGYSFPHYGFPTYGGITFHPGTTKSNAGMKHG
notes: Endogenous protein; also called NF-κB p50
For the molecule B1, the binding result was “no binding”.
